# Data taken from paper PMC7042059 (FEBS letters, 2019).
# Where “and” joins values, the source holds several entries; their conditions need not be identical. Equal values may be shown once.
# B1: PKM2 R399E (enzyme)
# chain: not shown
# Molecular target: the molecule itself
# Test: SEC
protein,measurement,value
B1,stoichiometry N,4 and 2
